# According to patent US10800847:
# Experiments:
# [1] = biological target: HLA-Cw*1802 (Cw18) (human); assay: Luminex, iBead vs regular bead MFI, 1:8
# [2] = biological target: HLA-Cw*0702 (Cw7) (human); assay: Luminex, iBead vs regular bead MFI, 1:8
# [3] = biological target: Albumin (negative control beads) (human or bovine); assay: Luminex, iBead vs regular bead MFI, 1:8
# [4] = biological target: HLA-Cw*0602 (Cw6) (human); assay: Luminex, iBead vs regular bead MFI, 1:8
# [5] = biological target: HLA-Cw*1502 (Cw15) (human); assay: Luminex, iBead vs regular bead MFI, 1:8
# [6] = biological target: HLA-Cw*0202 (Cw2) (human); assay: Luminex, iBead vs regular bead MFI, 1:8
# [7] = biological target: HLA-Cw*1701 (Cw17) (human); assay: Luminex, iBead vs regular bead MFI, 1:8
# [8] = biological target: HLA-Cw*1601 (Cw16) (human); assay: Luminex, iBead vs regular bead MFI, 1:8
# [9] = biological target: HLA-Cw*0302 (Cw10) (human); assay: Luminex, iBead vs regular bead MFI, 1:8
# [10] = biological target: HLA-Cw*0401 (Cw4) (human); assay: Luminex, iBead vs regular bead MFI, 1:8
# [11] = biological target: HLA-Cw*0501 (Cw5) (human); assay: Luminex, iBead vs regular bead MFI, 1:8
# [12] = biological target: HLA-Cw*1203 (Cw12) (human); assay: Luminex, iBead vs regular bead MFI, 1:8
# [13] = biological target: HLA-Cw*0304 (Cw10) (human); assay: Luminex, iBead vs regular bead MFI, 1:8
# [14] = biological target: HLA-Cw*0303 (Cw9) (human); assay: Luminex, iBead vs regular bead MFI, 1:8
# [15] = biological target: HLA-A*6901 (A69) single antigen on Luminex beads (human); assay: Luminex single antigen bead assay, regular beads (#7), IVIg 1:8
# [16] = biological target: HLA-A*7401 (A74) single antigen on Luminex beads (human); assay: as above
# [17] = biological target: HLA-A*8001 (A80) single antigen on Luminex beads (human); assay: as above
# [18] = biological target: HLA-A*6801 (A68) single antigen on beads (human); assay: Luminex single-antigen regular beads (#7), IVIg 1:8
# [19] = biological target: HLA-A*3001 (A30) single antigen on beads (human); assay: as above
# [20] = biological target: HLA-A*6602 (A66) single antigen on beads (human); assay: as above
# [21] = biological target: HLA-A*3303 (A33) single antigen on beads (human); assay: as above
# [22] = biological target: HLA-A*2902 (A29) single antigen on beads (human); assay: as above
# [23] = biological target: HLA-A*3402 (A34) single antigen on beads (human); assay: as above
# [24] = biological target: HLA-A*3101 (A31) single antigen on beads (human); assay: as above
# [25] = biological target: HLA-A*3401 (A34) single antigen on beads (human); assay: as above
# [26] = biological target: HLA-A*3201 (A32) single antigen on beads (human); assay: as above
# [27] = biological target: HLA-A*3601 (A36) single antigen on beads (human); assay: as above
# [28] = biological target: HLA-A*3002 (A30) single antigen on beads (human); assay: as above
# [29] = biological target: HLA-A*6601 (A66) single antigen on beads (human); assay: as above
# [30] = biological target: HLA-A*3301 (A33) single antigen on beads (human); assay: as above
# [31] = biological target: Serum albumin on negative control beads (HSA/BSA) (human or bovine); assay: Luminex regular beads (#7), IVIg diluted 1:8
# HLA-B*0801 (B8) (human) = assay: Luminex regular beads (#7), IVIg diluted 1:8
# HLA-B*1503 (B72) (human) = assay: Luminex regular beads (#7), IVIg diluted 1:8
# HLA-B*1402 (B65) (human) = assay: Luminex regular beads (#7), IVIg diluted 1:8
# HLA-B*1801 (B18) (human) = assay: Luminex regular beads (#7), IVIg diluted 1:8
# HLA-B*1502 (B75) (human) = assay: Luminex regular beads (#7), IVIg diluted 1:8
# HLA-B*1401 (B64) (human) = assay: Luminex regular beads (#7), IVIg diluted 1:8
# HLA-B*1513 (B77) (human) = assay: Luminex regular beads (#7), IVIg diluted 1:8
# HLA-B*0702 (B7) (human) = assay: Luminex regular beads (#7), IVIg diluted 1:8
# HLA-B*1511 (B75) (human) = assay: Luminex regular beads (#7), IVIg diluted 1:8
# HLA-B*1301 (B13) (human) = assay: Luminex regular beads (#7), IVIg diluted 1:8
# HLA-B*1302 (B13) (human) = assay: Luminex regular beads (#7), IVIg diluted 1:8
# HLA-B*1510 (B71) (human) = assay: Luminex regular beads (#7), IVIg diluted 1:8
# HLA-B*1516 (B63) (human) = assay: Luminex regular beads (#7), IVIg diluted 1:8
# [32] = biological target: HLA-Cw*1402 (Cw14) (human); assay: Luminex, iBead vs regular bead MFI, 1:8
# HLA-B*1512 (B76) (human) = assay: Luminex regular beads (#7), IVIg diluted 1:8
substance,measurement,setting,value
IVIg Gamunex-C Lot NKLK1 (antibody),Difference %,[1],-79%
same,Difference %,[2],-77%
same,Difference %,[3],-24%
same,Difference %,[4],-80%
same,Difference %,[5],-68%
same,Difference %,[6],-59%
same,Difference %,[7],-42%
same,Difference %,[8],-77%
same,Difference %,[9],-57%
same,Difference %,[10],-71%
same,Difference %,[11],-66%
same,Difference %,[12],-65%
same,Difference %,[13],-59%
same,Difference %,[14],-45%
same,MFI,[15],2780 MFI
same,MFI,[16],224 MFI
same,MFI,[17],1680 MFI
same,MFI,[18],0 MFI
same,MFI,[19],1230 MFI
same,MFI,[20],838 MFI
same,MFI,[21],179 MFI
same,MFI,[22],820 MFI
same,MFI,[23],0 MFI
same,MFI,[24],0 MFI
same,MFI,[25],2150 MFI
same,MFI,[26],424 MFI
same,MFI,[27],704 MFI
same,MFI,[28],562 MFI
same,MFI,[29],875 MFI
same,MFI,[30],925 MFI
same,MFI,[31],10300 MFI
same,MFI,HLA-B*0801 (B8) (human),1760 MFI
same,MFI,HLA-B*1503 (B72) (human),2300 MFI
same,MFI,HLA-B*1402 (B65) (human),1440 MFI
same,MFI,HLA-B*1801 (B18) (human),567 MFI
same,MFI,HLA-B*1502 (B75) (human),1540 MFI
same,MFI,HLA-B*1401 (B64) (human),2280 MFI
same,MFI,HLA-B*1513 (B77) (human),3210 MFI
same,MFI,HLA-B*0702 (B7) (human),837 MFI
same,MFI,HLA-B*1511 (B75) (human),3820 MFI
same,MFI,HLA-B*1301 (B13) (human),3520 MFI
same,MFI,HLA-B*1302 (B13) (human),2530 MFI
same,MFI,HLA-B*1510 (B71) (human),1620 MFI
same,MFI,HLA-B*1516 (B63) (human),3130 MFI
"IVIg Octagam (Octapharma, Lachen, Switzerland) (antibody)",Difference %,[1],-92%
same,Difference %,[2],-89%
same,Difference %,[3],-29%
same,Difference %,[4],-96%
same,Difference %,[5],-95%
same,Difference %,[6],-80%
same,Difference %,[7],-70%
same,Difference %,[8],-88%
same,Difference %,[9],-79%
same,Difference %,[10],-80%
same,Difference %,[32],-88%
same,Difference %,[11],-83%
same,Difference %,[13],-74%
same,Difference %,[14],-64%
same,MFI,[15],1720 MFI
same,MFI,[16],201 MFI
same,MFI,[17],2290 MFI
same,MFI,[18],0 MFI
same,MFI,[19],928 MFI
same,MFI,[20],3650 MFI
same,MFI,[21],542 MFI
same,MFI,[22],1580 MFI
same,MFI,[23],0 MFI
same,MFI,[24],366 MFI
same,MFI,[25],2880 MFI
same,MFI,[26],738 MFI
same,MFI,[27],778 MFI
same,MFI,[28],533 MFI
same,MFI,[29],1700 MFI
same,MFI,[30],1490 MFI
same,MFI,[31],2340 MFI
same,MFI,HLA-B*0801 (B8) (human),2120 MFI
same,MFI,HLA-B*1503 (B72) (human),1060 MFI
same,MFI,HLA-B*1402 (B65) (human),1460 MFI
same,MFI,HLA-B*1801 (B18) (human),246 MFI
same,MFI,HLA-B*1502 (B75) (human),861 MFI
same,MFI,HLA-B*1401 (B64) (human),2400 MFI
same,MFI,HLA-B*1513 (B77) (human),2260 MFI
same,MFI,HLA-B*0702 (B7) (human),714 MFI
same,MFI,HLA-B*1511 (B75) (human),3640 MFI
same,MFI,HLA-B*1301 (B13) (human),3680 MFI
same,MFI,HLA-B*1302 (B13) (human),1940 MFI
same,MFI,HLA-B*1510 (B71) (human),1290 MFI
same,MFI,HLA-B*1516 (B63) (human),3130 MFI
same,MFI,HLA-B*1512 (B76) (human),1130 MFI
